Measurements as given in publication PMC11794977, “Inhibitory Potential and Binding Thermodynamics of Scyllatoxin‐Based BH3 Domain Mimetics Targeting Repressor BCL2 Proteins” (Journal of Molecular Recognition, 2025).

What was measured:
[1] = molecular target: T1, Bcl‐2‐ΔTM (recombinant His‐tagged Bcl‐2 without its transmembrane domain); assay: ITC; 200 μM acetylated peptide injected into 20 μM Bcl‐2‐ΔTM in the cell; binding buffer (50 mM Tris, 100 mM NaCl, pH 8.0); 25°C; one‐site model; Kd as reciprocal of Ka; triplicate; conditions: both partners purified
T1 construct: also called Bcl‐2 (proper); Bcl‐2‐ΔTM proteins

[2] = molecular target: T1, Bcl‐2‐ΔTM (recombinant His‐tagged Bcl‐2 …); assay: fluorescence polarisation; competition: 100 nM Bcl‐2‐ΔTM and 25 nM ^FluBax‐BH3^ΔB pre‐incubated 1 h, then acetylated peptide (100 μM to 2.3 pM) added for 1 h; binding buffer (50 mM Tris, 100 mM NaCl, pH 8.0); ambient temperature; triplicate; conditions: both partners purified

B1: ^AcBax‐BH3^ΔB (peptide)
chain: STKKLSEXLKRIGDELDSNM
HELM: PEPTIDE1{[ac].S.T.K.K.L.S.E.[Abu].L.K.R.I.G.D.E.L.D.S.N.M.[am]}$$$$V2.0
SMILES: CC[C@H](NC(=O)[C@H](CCC(=O)O)NC(=O)[C@H](CO)NC(=O)[C@H](CC(C)C)NC(=O)[C@H](CCCCN)NC(=O)[C@H](CCCCN)NC(=O)[C@@H](NC(=O)[C@H](CO)NC(C)=O)[C@@H](C)O)C(=O)N[C@@H](CC(C)C)C(=O)N[C@@H](CCCCN)C(=O)N[C@@H](CCCNC(=N)N)C(=O)N[C@H](C(=O)NCC(=O)N[C@@H](CC(=O)O)C(=O)N[C@@H](CCC(=O)O)C(=O)N[C@@H](CC(C)C)C(=O)N[C@@H](CC(=O)O)C(=O)N[C@@H](CO)C(=O)N[C@@H](CC(N)=O)C(=O)N[C@@H](CCSC)C(N)=O)[C@@H](C)CC
Kd [1]: 191 nM
dH [1]: -5.43 kcal/mol
stoichiometry N [1]: 0.93
IC50 [2]: 141 nM
